{"source": "patent US11278600B2", "about": "“Human alpha-galactosidase variants” (Codexis, Inc., priority 2014, dated 2022)", "molecules": {"B1": {"name": "456 (protein)", "chain": "LDNGLARTPTMGWLHWERFMCNLDCQEEPDSCISEKLFMEMAERMVSEGWKDAGYEYLCIDDCWMAPQRDSEGRLQADPQRFPHGIRQLANYVHSKGLKLGIYADVGNKTCAGFPGSFGYYDIDAQTFADWGVDLLKFDGCYCDSLENLADGYKHMSLALNRTGRSIVYSCEWPLYMWPFQKPNYTEIRQYCNHWRNFADIDDSWKSIKSILDWTSRNQERIVDVAGPGGWNDPDMLVIGNFGLSWDQQVTQMALWAIMAAPLFMSNDLRHISPQAKALLQDKDVIAINQDPLGKQGYQLRKGDNFEVWERPLSGDAWAVAIINRQEIGGPRSYTIPVASLGKGVACNPACFITQLLPVKRQLGFYNWTSRLKSHINPTGTVLLQLENMMQMSLKDLL", "modifications": "Synthetic Polypeptide sequence of Variant No. 456 of mature Human GLA"}, "B2": {"name": "457 (protein)", "chain": "B1 chain with M389T, M392A", "modifications": "Synthetic Polypeptide sequence of Variant No. 457 of mature Human GLA"}, "B3": {"name": "367 (protein)", "chain": "B1 chain with M39R, M389T", "modifications": "Synthetic Polypeptide sequence of Variant No. 367 of mature Human GLA"}, "B4": {"name": "459 (protein)", "chain": "B1 chain with M389T, M390H", "modifications": "Synthetic Polypeptide sequence of Variant No. 459 of mature Human GLA"}, "B5": {"name": "460 (protein)", "chain": "B1 chain with L386T, M389T", "modifications": "Synthetic Polypeptide sequence of Variant No. 460 of mature Human GLA"}, "B6": {"name": "461 (protein)", "chain": "B1 chain with M389T, M392Q", "modifications": "Synthetic Polypeptide sequence of Variant No. 461 of mature Human GLA"}, "B7": {"name": "462 (protein)", "chain": "B1 chain with Q385L, M389T", "modifications": "Synthetic Polypeptide sequence of Variant No. 462 of mature Human GLA"}, "B8": {"name": "463 (protein)", "chain": "B1 chain with M389T, M390T", "modifications": "Synthetic Polypeptide sequence of Variant No. 463 of mature Human GLA"}, "B9": {"name": "465 (protein)", "chain": "B1 chain with M389T, M390Q", "modifications": "Synthetic Polypeptide sequence of Variant No. 465 of mature Human GLA"}, "B10": {"name": "466 (protein)", "chain": "B1 chain with M389T, M392E", "modifications": "Synthetic Polypeptide sequence of Variant No. 466 of mature Human GLA"}, "B11": {"name": "467 (protein)", "chain": "B1 chain with M389S", "modifications": "Synthetic Polypeptide sequence of Variant No. 467 of mature Human GLA"}, "B12": {"name": "368 (protein)", "chain": "B1 chain with R44A, M389T", "modifications": "Synthetic Polypeptide sequence of Variant No. 368 of mature Human GLA"}, "B13": {"name": "468 (protein)", "chain": "B1 chain with M389Q", "modifications": "Synthetic Polypeptide sequence of Variant No. 468 of mature Human GLA"}, "B14": {"name": "469 (protein)", "chain": "B1 chain with Q385I, M389T", "modifications": "Synthetic Polypeptide sequence of Variant No. 469 of mature Human GLA"}, "B15": {"name": "470 (protein)", "chain": "B1 chain with M389T, M392R", "modifications": "Synthetic Polypeptide sequence of Variant No. 470 of mature Human GLA"}, "B16": {"name": "471 (protein)", "chain": "B1 chain with M389W", "modifications": "Synthetic Polypeptide sequence of Variant No. 471 of mature Human GLA"}}, "note": "Where a chain is given by its changes, count along the chain named."}
{"assay": "HTP-analysis of yeast culture supernatants, no challenge (MUGal hydrolysis)", "format": "biochemical", "conditions": "activity of the variant/activity of Rd4BB (SEQ ID NO: 15)", "procedure,_shortened": "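Activity read as 4-methylumbelliferyl α-D-galactopyranoside hydrolysis: fluorescence (355/448 nm) after sodium carbonate stop, following 30-180 min at 37° C with 2 mM MUGal stock at pH 4.6–4.8. Enzyme source is unchallenged culture supernatant of INVSc1 yeast expressing GLA variants, grown 66-84 h at 30° C.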"}
{"molecule": "B1", "Relative Activity of GLA Variants After No Challenge (NC)": "+ (0.5 to 1.5 relative activity over Rd4BB (SEQ ID NO: 15))"}
{"molecule": "B2", "Relative Activity of GLA Variants After No Challenge (NC)": "+ (0.5 to 1.5 relative activity over Rd4BB (SEQ ID NO: 15))"}
{"molecule": "B3", "Relative Activity of GLA Variants After No Challenge (NC)": "+ (0.5 to 1.5 relative activity over Rd4BB (SEQ ID NO: 15))"}
{"molecule": "B4", "Relative Activity of GLA Variants After No Challenge (NC)": "+ (0.5 to 1.5 relative activity over Rd4BB (SEQ ID NO: 15))"}
{"molecule": "B5", "Relative Activity of GLA Variants After No Challenge (NC)": "+ (0.5 to 1.5 relative activity over Rd4BB (SEQ ID NO: 15))"}
{"molecule": "B6", "Relative Activity of GLA Variants After No Challenge (NC)": "+ (0.5 to 1.5 relative activity over Rd4BB (SEQ ID NO: 15))"}
{"molecule": "B7", "Relative Activity of GLA Variants After No Challenge (NC)": "+ (0.5 to 1.5 relative activity over Rd4BB (SEQ ID NO: 15))"}
{"molecule": "B8", "Relative Activity of GLA Variants After No Challenge (NC)": "+ (0.5 to 1.5 relative activity over Rd4BB (SEQ ID NO: 15))"}
{"molecule": "B9", "Relative Activity of GLA Variants After No Challenge (NC)": "+ (0.5 to 1.5 relative activity over Rd4BB (SEQ ID NO: 15))"}
{"molecule": "B10", "Relative Activity of GLA Variants After No Challenge (NC)": "+ (0.5 to 1.5 relative activity over Rd4BB (SEQ ID NO: 15))"}
{"molecule": "B11", "Relative Activity of GLA Variants After No Challenge (NC)": "+ (0.5 to 1.5 relative activity over Rd4BB (SEQ ID NO: 15))"}
{"molecule": "B12", "Relative Activity of GLA Variants After No Challenge (NC)": "+ (0.5 to 1.5 relative activity over Rd4BB (SEQ ID NO: 15))"}
{"molecule": "B13", "Relative Activity of GLA Variants After No Challenge (NC)": "+ (0.5 to 1.5 relative activity over Rd4BB (SEQ ID NO: 15))"}
{"molecule": "B14", "Relative Activity of GLA Variants After No Challenge (NC)": "+ (0.5 to 1.5 relative activity over Rd4BB (SEQ ID NO: 15))"}
{"molecule": "B15", "Relative Activity of GLA Variants After No Challenge (NC)": "+ (0.5 to 1.5 relative activity over Rd4BB (SEQ ID NO: 15))"}
{"molecule": "B16", "Relative Activity of GLA Variants After No Challenge (NC)": "+ (0.5 to 1.5 relative activity over Rd4BB (SEQ ID NO: 15))"}
{"assay": "HTP-analysis of supernatants pretreated with acid (MUGal hydrolysis)", "format": "biochemical", "conditions": "activity of the variant/activity of Rd4BB (SEQ ID NO: 15); challenge at pH 3.7", "procedure,_shortened": "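Yeast INVSc1 supernatant, GLA variants; acid challenge: McIlvaine pH 3.3-4.3, 37° C., 1-3 h. Assay: MUGal in McIlvaine pH 4.8 plus citrate pH 4.3, 37° C., 30-180 min, Na2CO3 stop, Ex 355/Em 448 nm.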"}
{"molecule": "B1", "Relative Activity of GLA Variants After Challenge at pH 3.7": "+ (0.5 to 1.5 relative activity over Rd4BB (SEQ ID NO: 15))"}
{"molecule": "B2", "Relative Activity of GLA Variants After Challenge at pH 3.7": "+ (0.5 to 1.5 relative activity over Rd4BB (SEQ ID NO: 15))"}
{"molecule": "B3", "Relative Activity of GLA Variants After Challenge at pH 3.7": "+ (0.5 to 1.5 relative activity over Rd4BB (SEQ ID NO: 15))"}
{"molecule": "B4", "Relative Activity of GLA Variants After Challenge at pH 3.7": "++ (>1.5 to 2.5 relative activity over Rd4BB (SEQ ID NO: 15))"}
{"molecule": "B5", "Relative Activity of GLA Variants After Challenge at pH 3.7": "+ (0.5 to 1.5 relative activity over Rd4BB (SEQ ID NO: 15))"}
{"molecule": "B6", "Relative Activity of GLA Variants After Challenge at pH 3.7": "+ (0.5 to 1.5 relative activity over Rd4BB (SEQ ID NO: 15))"}
{"molecule": "B7", "Relative Activity of GLA Variants After Challenge at pH 3.7": "+ (0.5 to 1.5 relative activity over Rd4BB (SEQ ID NO: 15))"}
{"molecule": "B8", "Relative Activity of GLA Variants After Challenge at pH 3.7": "+ (0.5 to 1.5 relative activity over Rd4BB (SEQ ID NO: 15))"}
{"molecule": "B9", "Relative Activity of GLA Variants After Challenge at pH 3.7": "+ (0.5 to 1.5 relative activity over Rd4BB (SEQ ID NO: 15))"}
{"molecule": "B10", "Relative Activity of GLA Variants After Challenge at pH 3.7": "+ (0.5 to 1.5 relative activity over Rd4BB (SEQ ID NO: 15))"}
{"molecule": "B11", "Relative Activity of GLA Variants After Challenge at pH 3.7": "+ (0.5 to 1.5 relative activity over Rd4BB (SEQ ID NO: 15))"}
{"molecule": "B12", "Relative Activity of GLA Variants After Challenge at pH 3.7": "+ (0.5 to 1.5 relative activity over Rd4BB (SEQ ID NO: 15))"}
{"molecule": "B13", "Relative Activity of GLA Variants After Challenge at pH 3.7": "+ (0.5 to 1.5 relative activity over Rd4BB (SEQ ID NO: 15))"}
{"molecule": "B14", "Relative Activity of GLA Variants After Challenge at pH 3.7": "+ (0.5 to 1.5 relative activity over Rd4BB (SEQ ID NO: 15))"}
{"molecule": "B15", "Relative Activity of GLA Variants After Challenge at pH 3.7": "++ (>1.5 to 2.5 relative activity over Rd4BB (SEQ ID NO: 15))"}
{"molecule": "B16", "Relative Activity of GLA Variants After Challenge at pH 3.7": "+ (0.5 to 1.5 relative activity over Rd4BB (SEQ ID NO: 15))"}
{"assay": "HTP-analysis of supernatants pretreated with base (MUGal hydrolysis)", "format": "biochemical", "conditions": "activity of the variant/activity of Rd4BB (SEQ ID NO: 15); challenge at pH 9.65", "procedure,_shortened": "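GLA variants secreted from yeast INVSc1; culture supernatants pre-incubated with McIlvaine buffer pH 7.0–8.2 or 200 mM bicarbonate pH 9.1–9.7 at 37° C. for 1–18 h. Residual activity: MUGal (4 mM stock) hydrolysis at pH 4.3–4.8, 37° C., 30–180 min, carbonate quench; fluorescence Ex 355/Em 448 nm.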"}
{"molecule": "B1", "Relative Activity of GLA Variants After Challenge at pH 9.65": "+ (0.5 to 1.5 relative activity over Rd4BB (SEQ ID NO: 15))"}
{"molecule": "B2", "Relative Activity of GLA Variants After Challenge at pH 9.65": "+ (0.5 to 1.5 relative activity over Rd4BB (SEQ ID NO: 15))"}
{"molecule": "B3", "Relative Activity of GLA Variants After Challenge at pH 9.65": "− (<0.5 relative activity over Rd4BB (SEQ ID NO: 15))"}
{"molecule": "B4", "Relative Activity of GLA Variants After Challenge at pH 9.65": "+ (0.5 to 1.5 relative activity over Rd4BB (SEQ ID NO: 15))"}
{"molecule": "B5", "Relative Activity of GLA Variants After Challenge at pH 9.65": "+ (0.5 to 1.5 relative activity over Rd4BB (SEQ ID NO: 15))"}
{"molecule": "B6", "Relative Activity of GLA Variants After Challenge at pH 9.65": "+ (0.5 to 1.5 relative activity over Rd4BB (SEQ ID NO: 15))"}
{"molecule": "B7", "Relative Activity of GLA Variants After Challenge at pH 9.65": "+ (0.5 to 1.5 relative activity over Rd4BB (SEQ ID NO: 15))"}
{"molecule": "B8", "Relative Activity of GLA Variants After Challenge at pH 9.65": "+ (0.5 to 1.5 relative activity over Rd4BB (SEQ ID NO: 15))"}
{"molecule": "B9", "Relative Activity of GLA Variants After Challenge at pH 9.65": "+ (0.5 to 1.5 relative activity over Rd4BB (SEQ ID NO: 15))"}
{"molecule": "B10", "Relative Activity of GLA Variants After Challenge at pH 9.65": "+ (0.5 to 1.5 relative activity over Rd4BB (SEQ ID NO: 15))"}
{"molecule": "B11", "Relative Activity of GLA Variants After Challenge at pH 9.65": "+ (0.5 to 1.5 relative activity over Rd4BB (SEQ ID NO: 15))"}
{"molecule": "B12", "Relative Activity of GLA Variants After Challenge at pH 9.65": "+ (0.5 to 1.5 relative activity over Rd4BB (SEQ ID NO: 15))"}
{"molecule": "B13", "Relative Activity of GLA Variants After Challenge at pH 9.65": "+ (0.5 to 1.5 relative activity over Rd4BB (SEQ ID NO: 15))"}
{"molecule": "B14", "Relative Activity of GLA Variants After Challenge at pH 9.65": "+ (0.5 to 1.5 relative activity over Rd4BB (SEQ ID NO: 15))"}
{"molecule": "B15", "Relative Activity of GLA Variants After Challenge at pH 9.65": "+ (0.5 to 1.5 relative activity over Rd4BB (SEQ ID NO: 15))"}
{"molecule": "B16", "Relative Activity of GLA Variants After Challenge at pH 9.65": "+ (0.5 to 1.5 relative activity over Rd4BB (SEQ ID NO: 15))"}
